Data published in patent CN109879965A.

Target: CD3E on human peripheral blood T lymphocytes (human) (UniProt P07766)
Assay: cell-based or functional assay

Sequence of CD3E on human peripheral blood T lymphocytes (human) (P07766 23-207): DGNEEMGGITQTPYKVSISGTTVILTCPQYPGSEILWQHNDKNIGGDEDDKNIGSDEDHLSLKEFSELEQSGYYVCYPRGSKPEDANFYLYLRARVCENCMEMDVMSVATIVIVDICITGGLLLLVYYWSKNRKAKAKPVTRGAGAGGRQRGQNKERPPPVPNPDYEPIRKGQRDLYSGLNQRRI

## OKT3 (antibody)
  IL-2 in the supernatant of PBMC after 48 h on plate-coated antibody (1 μg/mL), IL-2 ELISA: 400 pg/mL
